Measurements from US12466859B2, “Desmoglein 2 (DSG2) binding proteins and uses therefor” (UNIVERSITY OF WASHINGTON THROUGH ITS CENTER FOR …, priority 2013, dated 2025).
Where a chain is given by its changes, count along the chain named. Names and notes keep the numbering of the source. “Also recorded” adds a separate entry of the source.

B1: D261N (protein)
chain: MKVSALKEKVSALKEKVSALKEKVSALKEKVSALKEGSGGGSGGGSGGGSNSIALKNNTLWTGPKPEANCIIEYGKQNPDSKLTLILVKNGGIVNGYVTLMGASDYVNTLFKNKNVSINVELYFDATGHILPDSSSLKTDLELKYKQTADFSARGFMPSTTAYPFVLPNAGTHNENYIFGQCYYKASNGALFPLEVTVMLNKRLPDSRTSYVMTFLWSLNAGLAPETTQATLITSPFTFSYIREDD
B2: JO-4 (protein)
chain: B1 chain with Y177F, N188D
B3: JO-1: dimeric protein that contains the wild-type Ad3 fiber knob and a self-dimerization domain (SEQ ID NO:27) (protein, listed as Homo sapiens)
chain: B1 chain with N188D
modifications: dimer

What was measured:
[1] = system: polarized colon cancer T84 cells; experiment: Transepithelial electrical resistance (TEER) on polarized T84 cells; type: cell-based; settings: for Effect on the TEER: added for 1 hour to the apical side of transwell cultures
Experimental: (§1) FIG. 5A-5B. Correlation of reduced DSG2 binding with the ability to open epithelial junctions. FIG. 5A) Transepithelial electrical resistance (TEER) measured on polarized colon cancer T84 cells. Cells were cultured in transwell chambers until the TEER was constant, i.e. tight junctions had formed. A total of 5 μg of dimeric Ad3 fiber knobs in PBS was then added for 1 hour to the apical chamber. TEER was measured at the indicated time points. N=6. For time points 1.5 and 4 hours the difference between JO-1 vs D261N and N186D was significant (p<0.01). The arrows indicate the addition and removal of Ad3 fiber knobs. FIG. 5B) Enhancement of irinotecan therapy. A total of 4×10^6 A549 cells were injected subcutaneously into CB17-SCID/beige mice. Once the tumor reached a volume of ˜100 mm^3 (day 15 after implantation), the mice were injected intravenously with 2 mg/kg JO-1, E299V, N186D, or PBS, followed by an intravenous injection of irinotecan (37.5 mg/kg) one hour later. The treatment was repeated on day 25. N=5. […] The difference between “irinotecan” vs “JO-1+irinotecan” was significant (p<0.01) from day 20 on.
FIG. 9A1-9C. Analysis of dimeric Ad3 fiber knob mutants with increased affinity to DSG2. FIG. 9A1-9A2) Competition of Ad3-GFP virus infection on HeLa cells with dimeric affinity-enhanced mutant Y250F and JO-1 (dimeric wt Ad3 fiber knob). The experimental setting is as described for FIG. 3C. FIG. 9A1) percentage of GFP positive cells. FIG. 9A2) mean fluorescence intensity. N=3. The standard deviation was less than 10%. FIG. 9B1-9B2) Competition of Ad3-GFP virus infection on HeLa cells by Ad3 knob mutants with enhanced DSG2 binding but without dimerization domain. 1.5×10^5 HeLa cells were seeded into 24 well plates. Cells were incubated with the Ad3 knob mutants at the increasing concentrations for one hour at room temperature. 100 pfu/cell of Ad3GFP virus were then added and GFP expression was analyzed 18 hours later. FIG. 9B1) % of GFP+cells; FIG. 9B2) MFI. FIG. 9C) TEER on colon cancer T84 cells. The experimental setting was the same as for FIG. 5A. The TEER at 4 hours is shown. N=3.
Permeability assay. A total of 5×10^5 T84 cells were seeded in 12 mm transwell inserts (PET membrane, with 0.4 μm pore size (Corning, NY) and cultured for >14 days until transepithelial electrical resistance (TEER) was stable. Culture medium was changed every 2-3 days. The cells were exposed to DSG2 ligands (20 μg/ml) in adhesion medium (DMEM, 1% FBS, 2 mM MgCl2, 20 mM HEPES) for 15 min at room temperature and TEER was measured and calculated as described elsewhere (39).

A549 xenograft tumors = experiment: Enhancement of irinotecan therapy in A549 xenograft tumors; type: in vivo, CB17-SCID/beige mice; settings: 2 mg/kg i.v. one hour before irinotecan 37.5 mg/kg i.v.; tumor volume
Experimental: as §1
FIG. 10A-10C. Combination of affinity-enhanced JO-1 versions with chemotherapy. FIG. 10A) Enhancement of irinotecan (I) therapy. The experimental setting was the same as in FIG. 5B. […] N=5. […] Mammary fat pad tumors were established from primary ovarian cancer ovc316 cells. Treatment was started when tumors reached a volume of 100 mm^3. Mice were injected intravenously with 2 mg/kg JO-1 or with 0.5 mg/kg JO-4, followed by an intravenous injection of PEGylated liposomal doxorubicin (PLD) (1 mg/kg) one hour later. Treatment was repeated weekly. […] A total of 4×10^6 TNBC MDA-MB-231 cells were injected into the mammary fat pad of CB17 SCID-beige mice. JO-4 (2 mg/kg) was intravenously injected 1 hour before the application of cetuximab (C) (10 mg/kg, i.p.) and nab-paclitaxel (nab-P) (5 mg/kg, i.v.). Treatment was given weekly. N=10 P<0.01 at day 25 for nab-P+C vs JO-4+nab-P+C.
A549, MDA-MB-231, and ovc316 xenograft tumors were established by injection of the corresponding tumor cells into the mammary fat pad (1:1 with Matrigel) of CB17 mice. TC1-DSG2 tumors were established by subcutaneous injection of TC1-DSG2 cells into DSG2 transgenic mice. JO-0, JO-1, JO-2, or JO-4 were intravenously injected one hour before the application of chemotherapeutic drugs: Irinotecan/Camptosar™ (Pfizer Inc., Groton, CT), PEGylated liposomal doxorubicin/Lipodox™ (Sun Pharmaceuticals IN, India), cetuximab/Erbitux™ (ImClone, Somerville, NJ), nanoparticle albumin conjugated paclitaxel/Abraxane” (Abraxis Biosciences, Summit, NJ). Tumor volumes were measured three times a week. Each treatment group consisted of a minimum of 5 mice.

Row | Molecule | Effect on the TEER [1] | TEER compared to JO-1 ([1]; dimeric affinity-enhanced mutants, TEER at 4 hours) | Enhancement of irinotecan therapy (A549 xenograft tumors)
1 | B1 | no effect |  | 
2 | B2 |  | significantly higher | significantly more than JO-1; also recorded: significantly more efficient than JO-2
3 | B3 | rapid decrease in the TEER |  | enhanced irinotecan therapy; also recorded: significant
